Assay results taken from the RNAGym collection of RNA variant scans (doi:10.7554/elife.90254).

B1: OR4K15 (parent)
chain: GUUAACGGUCAUAGGCCAUGGAAACUAGGAGCACCAUUUCGCUGCCAGUGAAGAAAUGAACAAAGAAAAUCUGGGCCAGGCAGGCAUCAAAAGAAAUAGUCUUGCGCUCAACCAGAAAGUCUGUAAUCAUUUUAAGGGUA

Variants of: B1
Test: self-cleavage, relative activity (ratio to wild type); higher = more cleavage; in vitro, sequencing; the parent is a self-cleaving ribozyme

Variant | self-cleavage
G65A | 1.5
U2A A95G | 1.21
C25U A129G | 1.37
U43C C71A | 0.32
G14A A51G | 1.18
A30G G106U | 0.04
U9C A23C | 1.27
A30G U72C | 0.24
U57C U120A | 2.01
A91G U100C | 2.19
U43G A66G | 1.69
U72C A114G | 2.31
U9G A89G | 1.46
U122C U132A | 0.43
U57C U132C | 0.52
U108C A117U | 0.01
A69G U120A | 1.44
A52G U108G | 0.03
G84C A111G | 0.02
A59G U132A | 0.98
A36U A86G | 1.03
A95C A116G | 0.74
C76U A78C | 0.11
U49G A114G | 0.06

Variant | self-cleavage
A54G | 1.06
G53U U100C | 2.06
A51G U127A | 2.09
A47U U70G | 1.16
A95G U127C | 1.56
A64G G106U | 0.02
G106C U108C | 0
A18U U39A | 1.05
C34U U87C | 1.63
A5G U26C | 0.6
A68G A91G | 1.18
A4G U43G | 0.55
U120C U131C | 0.85
A36U A54G | 1.02
U57G A64G | 0.9
A95G U130C | 1.89
A62G A64U | 1.23
U72C A117C | 0.08
U87C A114G | 0.43
A56G U97A | 2.36
U72C G136A | 0.7
A56U U130C | 0.34
A86G A134G | 1.25
G74A U127C | 0.02

Variant | self-cleavage
A110G A114U | 0.03
A47U G106A | 0.01
A30U U39C | 0.9
A5U A95U | 1.76
A111G U139C | 0.01
A22G U97G | 1.42
A54G C112G | 0.01
A86U U87C | 1.51
A51G U127C | 1.04
U38A U87C | 1.56
U12A A60C | 1.18
U87C U100A | 0.18
U72A A94U | 0.37
U26C U103A | 0.24
A30C A33G | 1.9
A60G A90U | 1.84
U39C C121U | 2.87
A23U U43C | 1.22
A64G A140G | 1.47
G65A A118G | 1.57
U49C U139A | 1.15
A86G A114U | 0.03
A18U U127A | 2.41
A11U A66G | 2.37

Variant | self-cleavage
C45U A114U | 0.13
U9G A24G | 1.4
A30G C112U | 0.04
A64G A111G | 0.05
C25G A30G | 0.59
A116G A118G | 0.22
U87A U133C | 1.05
A30U G138A | 2.22
U49A A116G | 0.3
G8A U103G | 0.03
A5U A67U | 0.99
A55U U122A | 0.96
A86G A135U | 2.39
A68C C88G | 1.63
U2C U100C | 1.61
U49C G74A | 0.09
A89G U124C | 0.93
A23G C101U | 0.35
U70C A129U | 0.41
C25U A66C | 1.33
A55G A66G | 1.4
A94U U108C | 0.02
A60U A82U | 0.45
G65A A117G | 0.36

Variant | self-cleavage
U19C C40U | 1.67
A66G U72C | 0.09
A22G A67C | 1.6
G74A A117U | 0.19
U37A A62G | 1.37
U122A U133A | 1.43
A60G U122A | 1.41
A110C A135U | 0.06
A23U A30U | 0.26
A86U U130C | 1.44
A52U G83A | 1.64
A5G A135G | 2.3
C6U A27G | 2.16
A13G A125U | 0.88
A47U A117C | 0.24
C34A A89U | 1.63
A52G A129C | 0.65
U39C A69G | 1.37
A82G U139C | 0.39
A52U U133C | 1.72
G28U A68G | 1.22
G136A | 1.34
U2C A91G | 1.08
A11G A129C | 0.66

Variant | self-cleavage
A13U U43C | 1.24
U9A A59U | 1.81
G75A A91G | 0.14
U39A A118G | 1.28
U87A A134G | 2.21
A54U A78U | 0.29
A24G U72G | 0.26
A86G U124A | 0.4
A33G A98U | 1.19
A47U U49C | 0.36
U122C U133A | 0.52
U72C A117G | 0.22
A51G A126G | 0.71
A62C A78C | 0.31
A59U A111G | 0.02
U57C U102A | 0.48
A23G A90G | 0.8
C25U A55G | 1.72
U49C A86G | 1.03
A5G A126G | 0.69
A117G U131C | 1.15
U87A U100C | 2.28
A52G A116C | 0.11
A51G C128U | 2.26

Variant | self-cleavage
A67G U108A | 0.02
C17U A69G | 0.62
A94G U133C | 2.11
C42A U120A | 1.7
A24U U87A | 1.8
A11U U72A | 0.53
A114G A126U | 0.46
U39C A94G | 1.34
A18G A118C | 0.27
A96U G99A | 0.44
U43C A116U | 0.46
A36G A118C | 1.46
A52U A140G | 0.56
A52G U72C | 0.27
U38A A64G | 1.37
A82U A95C | 0.12
U39C U72A | 0.32
A59U U72A | 0.14
A89G U103C | 0.55
C85U U122C | 0.9
A22G U38C | 1.62
A54G A69C | 1.39
A125U U131C | 2.47
